# Results reported in publication PMC6696043, “Aptamers in Education: Undergraduates Make Aptamers and Acquire 21st Century Skills Along the Way”.
# T1: human tissue-nonspecific alkaline phosphatase (human, UniProt P05186 18-501)
# T1 sequence: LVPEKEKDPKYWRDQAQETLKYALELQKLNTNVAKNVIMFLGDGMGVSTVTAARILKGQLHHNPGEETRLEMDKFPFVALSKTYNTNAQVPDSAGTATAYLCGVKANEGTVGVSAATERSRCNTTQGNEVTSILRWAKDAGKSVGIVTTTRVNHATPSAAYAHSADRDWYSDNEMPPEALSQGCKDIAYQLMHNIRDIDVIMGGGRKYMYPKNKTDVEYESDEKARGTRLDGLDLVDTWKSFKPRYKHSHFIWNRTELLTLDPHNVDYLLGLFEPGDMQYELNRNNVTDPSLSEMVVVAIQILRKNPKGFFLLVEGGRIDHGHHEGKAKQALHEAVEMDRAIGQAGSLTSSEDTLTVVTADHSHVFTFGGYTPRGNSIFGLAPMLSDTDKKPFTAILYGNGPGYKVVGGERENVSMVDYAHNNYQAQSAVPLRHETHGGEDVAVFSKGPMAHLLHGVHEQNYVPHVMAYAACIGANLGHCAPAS
# B1: minimized aptamer variant 3.1 (structured_RNA)
# RNA: GGGUAGAUGCUGUAUAUAGCGAACUCAACAUAAGGUAUAAUUACAAUUUCUACCC
# B2: aptamer clone 4-3 (structured_RNA)
# RNA: GGGUUUACCUAGGUGUAGAUGCUGUAUAUAGCGAACUCAACAUAAGGUAUAAUUACAAUUUCUAUACUUCUUCAAGUGACGUCUGAACUGCUUCGAA
# B3: clone c2-4 (structured_RNA)
# RNA: GGGUUUACCUAGGUGUAGAUGCUUCUUCACUCCUUAUGAACACGUAGCGCUCAAUCAUCUCUAAUUAAUUCUCAAGUGACGUCUGAACUGCUUCGAA
# B4: aptamer clone 3-6 (structured_RNA)
# RNA: GGGUUUACCUAGGUGUAGAUGCUCUGCCCUUCAGAUUUAUCGAUGACCGUUGAACUCAACAUAAGACCUUCCAAAGUGACGUCUGAACUGCUUCGAA
# B5: clone c2-1 (structured_RNA)
# RNA: GGGUUUACCUAGGUGUAGAUGCUGAUAGAUUUCCCCUGACUUAGGAGCUCAUUAGAUUUUUAUUGUGUGGGGCAAGUGACGUCUGAACUGCUUCGAA
# Key:
# [1] = molecular target: calf intestinal alkaline phosphatase (CIAP) (calf) (UniProt P19111); assay: 32P-RNA binding assay; conditions: RNA 5 nM, triplicate; Selection buffer 20 mM HEPES pH 7.5, 150 mM NaCl, 5 mM MgCl2, room temperature; binding assay conditions not separately stated (refers to cited protocol)
# [2] = molecular target: T2, calf intestinal alkaline phosphatase (CIAP) (calf, UniProt P19111 20-506); assay: 32P-RNA binding assay; Selection buffer 20 mM HEPES pH 7.5, 150 mM NaCl, 5 mM MgCl2, room temperature; binding assay conditions not separately stated (refers to cited protocol); conditions: protein: commercial; tags: biotinylated (Pierce 29339, 69 kDa); chain copies: 2; label: 32P; stem-loop, GGG/CCC closing stem
# [3] = molecular target: human intestinal alkaline phosphatase (human, UniProt P09923 20-503); assay: 32P-RNA binding assay; up to 250 nM protein, single point; Selection buffer 20 mM HEPES pH 7.5, 150 mM NaCl, 5 mM MgCl2, room temperature; binding assay conditions not separately stated (refers to cited protocol); conditions: protein: recombinant; chain copies: 2; label: 32P; stem-loop, GGG/CCC closing stem
# [4] = molecular target: T1, human tissue-nonspecific alkaline …; assay: as above; conditions: protein: recombinant; chain copies: 2; label: 32P; stem-loop, GGG/CCC closing stem
# [5] = molecular target: T2, calf intestinal alkaline phosphatase …; assay: 32P-RNA binding assay; RNA 5 nM, triplicate; Selection buffer 20 mM HEPES pH 7.5, 150 mM NaCl, 5 mM MgCl2, room temperature; binding assay conditions not separately stated (refers to cited protocol); conditions: protein: commercial, tags: biotinylated (Pierce 29339, 69 kDa), chain copies: 2, label: 32P
# [6] = molecular target: T2, calf intestinal alkaline phosphatase …; assay: 32P-RNA bead binding assay; not above no-protein beads; Selection buffer 20 mM HEPES pH 7.5, 150 mM NaCl, 5 mM MgCl2, room temperature; binding assay conditions not separately stated (refers to cited protocol); conditions: protein: commercial; tags: biotinylated (Pierce 29339, 69 kDa); chain copies: 2; label: 32P
# [7] = molecular target: T2, calf intestinal alkaline phosphatase …; assay: 32P-RNA bead binding assay; not above no-protein beads; prefers naked beads; Selection buffer 20 mM HEPES pH 7.5, 150 mM NaCl, 5 mM MgCl2, room temperature; binding assay conditions not separately stated (refers to cited protocol); conditions: protein: commercial; tags: biotinylated (Pierce 29339, 69 kDa); chain copies: 2; label: 32P
# T2 sequence (P19111 20-506): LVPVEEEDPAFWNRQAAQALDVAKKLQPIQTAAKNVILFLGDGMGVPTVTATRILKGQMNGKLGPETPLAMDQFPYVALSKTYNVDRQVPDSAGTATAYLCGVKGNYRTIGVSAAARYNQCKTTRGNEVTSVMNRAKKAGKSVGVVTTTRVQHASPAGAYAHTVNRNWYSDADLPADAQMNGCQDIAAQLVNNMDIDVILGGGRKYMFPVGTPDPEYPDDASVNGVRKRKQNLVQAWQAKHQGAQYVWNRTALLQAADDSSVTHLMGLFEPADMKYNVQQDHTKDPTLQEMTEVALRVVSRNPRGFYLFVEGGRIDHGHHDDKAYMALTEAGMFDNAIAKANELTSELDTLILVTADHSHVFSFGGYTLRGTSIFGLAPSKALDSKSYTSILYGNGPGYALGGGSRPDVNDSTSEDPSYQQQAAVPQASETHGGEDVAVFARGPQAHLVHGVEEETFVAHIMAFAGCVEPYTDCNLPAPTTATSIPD
# Sequence of calf intestinal alkaline phosphatase (CIAP) (calf) (P19111 20-506): as above
# Sequence of human intestinal alkaline phosphatase (P09923 20-503): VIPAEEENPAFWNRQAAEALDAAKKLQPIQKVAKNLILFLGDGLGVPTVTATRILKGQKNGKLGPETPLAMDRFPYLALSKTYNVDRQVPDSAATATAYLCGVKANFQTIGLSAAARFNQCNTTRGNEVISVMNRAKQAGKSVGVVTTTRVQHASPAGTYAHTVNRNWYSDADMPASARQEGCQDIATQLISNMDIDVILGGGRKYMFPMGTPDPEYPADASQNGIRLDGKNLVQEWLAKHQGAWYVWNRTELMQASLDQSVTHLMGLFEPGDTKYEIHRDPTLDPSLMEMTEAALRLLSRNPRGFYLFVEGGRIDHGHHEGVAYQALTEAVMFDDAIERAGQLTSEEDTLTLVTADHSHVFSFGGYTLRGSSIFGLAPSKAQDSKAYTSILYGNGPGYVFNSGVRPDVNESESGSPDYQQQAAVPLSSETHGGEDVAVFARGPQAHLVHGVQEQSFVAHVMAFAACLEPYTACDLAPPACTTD
molecule,measurement,setting,value
GGGUUUACCUAGGUGUAGAUGCUUCWAUUGAUAUGUUAUAACUGAACUCAACAUAAGGAUAUGAUGUAUGAUCAAGUGACGUCUGAACUGCUUCGAA [aptamer clone 4-9],Kd,[1],9.4 nM
B1,Kd,[2],6.7 nM
same,binding result,[3],no binding
same,binding result,[4],no binding
B2,Kd,[5]; VDH motif in loop,5 nM
B3,binding result,[6],no binding
B4,Kd,[5]; VDH motif in loop and stem,10.8 nM
B5,binding result,[7],no binding
